B6: EagT6 Q58A (natural protein)
chain: MTLYRLHEADLEIPDAWQDQSINIFKLPASGPAREASFVISRDASQGDAPFADYVARALENAEKQLPGFKLHKRWDINIHGHAAVLLDYQWQREGRDLMLRQVFIERRPAVLITTLTTTPADLPHHEPAWKQAMQTLVPRPTPS
notes: also called EagT6-TMD Q58A (in complex)

Legend:
[1] = target: Tse6(1–61) (Pseudomonas aeruginosa) (UniProt Q9I739); assay: GdmCl denaturation followed by steady-state tryptophan fluorescence (unfolding free energy of the co-purified complex against the apo chaperone); 1 μM protein dimer, 25 mM Tris pH 7.0, GdmCl series, room temperature, 1 h equilibration; KTMD calculated by Eq. (7) from ΔG° of unfolding extrapolated to 0 M denaturant
[2] = target: Rhs1(1–59) (Salmonella Typhimurium); assay: stopped-flow fluorescence unfolding kinetics; co-purified complex or apo chaperone, 10 μM diluted 1/10 into GdmCl in 50 mM Tris, 250 mM NaCl, 1 mM BME, 20 °C; rate extrapolated to 0 M GdmCl
[3] = target: SciW (Salmonella Typhimurium); assay: dynamic light scattering; 50 mM Tris pH 8.0, 250 mM NaCl, 1 mM BME, 25 °C, 0.5 mg/ml protein
[4] = target: SciW I25F (Salmonella Typhimurium); assay: as above
[5] = target: SciW Q58A (Salmonella Typhimurium); assay: as above
[6] = target: SciW Q106A (Salmonella Typhimurium); assay: as above
[7] = target: SciW S41A (Salmonella Typhimurium); assay: as above
[8] = target: the molecule itself; assay: as above
EagT6 Q58A = target: B6; assay: GdmCl denaturation followed by steady-state tryptophan fluorescence (unfolding free energy of the co-purified complex against the apo chaperone); 1 μM protein dimer, 25 mM Tris pH 7.0, GdmCl series, room temperature, 1 h equilibration; KTMD calculated by Eq. (7) from ΔG° of unfolding extrapolated to 0 M denaturant; details: both partners purified

Molecule: EagT6 L66A (from UniProt Q9I738) (natural protein)
- Ka [1]: < 1e+06 M⁻¹

Molecule: SciW (natural protein)
- lifetime of the complex [2]: 15 h
- stoichiometry N [3]: 2

Molecule: SciW I25F (natural protein)
- stoichiometry N [4]: 2

Molecule: SciW L66A (natural protein)
- lifetime of the complex [2]: 2 h

Molecule: SciW Q58A (natural protein)
- lifetime of the complex [2]: 0.267 h
- stoichiometry N [5]: 2

Molecule: SciW Q106A (natural protein)
- stoichiometry N [6]: 2

Molecule: SciW S41A (natural protein)
- stoichiometry N [7]: 2

B1: EagT6 I24F (natural protein)
chain: MTLYRLHEADLEIPDAWQDQSINFFKLPASGPAREASFVISRDASQGDAPFADYVARQLENAEKQLPGFKLHKRWDINIHGHAAVLLDYQWQREGRDLMLRQVFIERRPAVLITTLTTTPADLPHHEPAWKQAMQTLVPRPTPS
- stoichiometry N [8]: 2

B2: EagT6 L66A (natural protein)
chain: MTLYRLHEADLEIPDAWQDQSINIFKLPASGPAREASFVISRDASQGDAPFADYVARQLENAEKQAPGFKLHKRWDINIHGHAAVLLDYQWQREGRDLMLRQVFIERRPAVLITTLTTTPADLPHHEPAWKQAMQTLVPRPTPS
notes: also called EagT6-TMD L66A (in complex)
- stoichiometry N [8]: 2

B3: Tse6(1–61) (domain or fragment)
chain: MDAQAAARLGDEIAHGFGVAAMVAGAVAGALIGAAVVAATAATGGLAAVILAGSIAAGGLS
notes: not shown: His6, C-terminal, kept
- Kd (EagT6 Q58A): ~0.03 nM

B4: EagT6 S41A (natural protein)
chain: MTLYRLHEADLEIPDAWQDQSINIFKLPASGPAREASFVIARDASQGDAPFADYVARQLENAEKQLPGFKLHKRWDINIHGHAAVLLDYQWQREGRDLMLRQVFIERRPAVLITTLTTTPADLPHHEPAWKQAMQTLVPRPTPS
- stoichiometry N [8]: 2

B5: EagT6 Q102A (natural protein)
chain: MTLYRLHEADLEIPDAWQDQSINIFKLPASGPAREASFVISRDASQGDAPFADYVARQLENAEKQLPGFKLHKRWDINIHGHAAVLLDYQWQREGRDLMLRAVFIERRPAVLITTLTTTPADLPHHEPAWKQAMQTLVPRPTPS
- stoichiometry N [8]: 2

Molecule: B6
- stoichiometry N [8]: 2

Source: publication PMC12881460, “Biophysical characterization of Eag chaperones suggests the mechanism of effector transmembrane domain release” (Nature Communications, 2026)
